# Measurements reported in publication PMC9279154 (Nature, 2022).
# B1: Dcr-2(D1217N/D1476N), catalytically inactive mutant (enzyme, Drosophila melanogaster, UniProt A1ZAW0 1-1722, looked up)
# chain: MEDVEIKPRGYQLRLVDHLTKSNGIVYLPTGSGKTFVAILVLKRFSQDFDKPIESGGKRALFMCNTVELARQQAMAVRRCTNFKVGFYVGEQGVDDWTRGMWSDEIKKNQVLVGTAQVFLDMVTQTYVALSSLSVVIIDECHHGTGHHPFREFMRLFTIANQTKLPRVVGLTGVLIKGNEITNVATKLKELEITYRGNIITVSDTKEMENVMLYATKPTEVMVSFPHQEQVLTVTRLISAEIEKFYVSLDLMNIGVQPIRRSKSLQCLRDPSKKSFVKQLFNDFLYQMKEYGIYAASIAIISLIVEFDIKRRQAETLSVKLMHRTALTLCEKIRHLLVQKLQDMTYDDDDDNVNTEEVIMNFSTPKVQRFLMSLKVSFADKDPKDICCLVFVERRYTCKCIYGLLLNYIQSTPELRNVLTPQFMVGRNNISPDFESVLERKWQKSAIQQFRDGNANLMICSSVLEEGIDVQACNHVFILDPVKTFNMYVQSKGRARTTEAKFVLFTADKEREKTIQQIYQYRKAHNDIAEYLKDRVLEKTEPELYEIKGHFQDDIDPFTNENGAVLLPNNALAILHRYCQTIPTDAFGFVIPWFHVLQEDERDRIFGVSAKGKHVISINMPVNCMLRDTIYSDPMDNVKTAKISAAFKACKVLYSLGELNERFVPKTLKERVASIADVHFEHWNKYGDSVTATVNKADKSKDRTYKTECPLEFYDALPRVGEICYAYEIFLEPQFESCEYTEHMYLNLQTPRNYAILLRNKLPRLAEMPLFSNQGKLHVRVANAPLEVIIQNSEQLELLHQFHGMVFRDILKIWHPFFVLDRRSKENSYLVVPLILGAGEQKCFDWELMTNFRRLPQSHGSNVQQREQQPAPRPEDFEGKIVTQWYANYDKPMLVTKVHRELTPLSYMEKNQQDKTYYEFTMSKYGNRIGDVVHKDKFMIEVRDLTEQLTFYVHNRGKFNAKSKAKMKVILIPELCFNFNFPGDLWLKLIFLPSILNRMYFLLHAEALRKRFNTYLNLHLLPFNGTDYMPRPLEIDYSLKRNVDPLGNVIPTEDIEEPKSLLEPMPTKSIEASVANLEITEFENPWQKYMEPVDLSRNLLSTYPVELDYYYHFSVGNVCEMNEMDFEDKEYWAKNQFHMPTGNIYGNRTPAKTNANVPALMPSKPTVRGKVKPLLILQKTVSKEHITPAEQGEFLAAITASSAADVFDMERLEILGNSFLKLSATLYLASKYSDWNEGTLTEVKSKLVSNRNLLFCLIDADIPKTLNTIQFTPRYTWLPPGISLPHNVLALWRENPEFAKIIGPHNLRDLALGDEESLVKGNCSDINYNRFVEGCRANGQSFYAGADFSSEVNFCVGLVTIPNKVIADTLEALLGVIVKNYGLQHAFKMLEYFKICRADIDKPLTQLLNLELGGKKMRANVNTTEIDGFLINHYYLEKNLGYTFKDRRYLLQALTHPSYPTNRITGSYQELEFIGNAILDFLISAYIFENNTKMNPGALTDLRSALVNNTTLACICVRHRLHFFILAENAKLSEIISKFVNFQESQGHRVTNYVRILLEEADVQPTPLDLDDELDMTELPHANKCISQEAEKGVPPKGEFNMSTNVDVPKALGDVLEALIAAVYLDCRDLQRTWEVIFNLFEPELQEFTRKVPINHIRQLVEHKHAKPVFSSPIVEGETVMVSCQFTCMEKTIKVYGFGSNKDQAKLSAAKHALQQLSKCDA
# notes: Dicer-2 (Dcr-2), Drosophila melanogaster, UniProt A1ZAW0, full length with D1217N and D1476N; also called Dcr-2(DDNN); Dcr-2^DDNN; source: sf9 cells (Bac-to-Bac baculovirus), purified (Ni-NTA, Hitrap Q, 2nd Ni-NTA, SEC)
# B2: His-tagged Loqs-PD, wild type (natural protein, Drosophila melanogaster, UniProt Q9VJY9-4 1-359, looked up)
# chain: MDQENFHGSSLPQQLQNLHIQPQQASPNPVQTGFAPRRHYNNLVGLGNGNAVSGSPVKGAPLGQRHVKLKKEKISAQVAQLSQPGQLQLSDVGDPALAGGSGLQGGVGLMGVILPSDEALKFVSETDANGLAMKTPVSILQELLSRRGITPGYELVQIEGAIHEPTFRFRVSFKDKDTPFTAMGAGRSKKEAKHAAARALIDKLIGAQLPESPSSSAGPSVTGLTVAGSGGDGNANATGGGDASDKTVGNPIGWLQEMCMQRRWPPPSYETETEVGLPHERLFTIACSILNYREMGKGKSKKIAKRLAAHRMWMRLQETPIDSGKISDSICGELEGEVSIIQDIDRYEQVSKDFEFIKI
# notes: Loquacious-PD (Loqs-PD), Drosophila melanogaster, UniProt M9MRT5, full length; The only construct described is in a modified pET28a with a 6×His-SUMO tag; also called WT; source: E. coli BL21 (DE3), purified
# B3: Drosophila melanogaster Loquacious-PD (Loqs-PD), full length, tag removed (natural protein, UniProt Q9VJY9-4 1-359, looked up)
# chain: B2 chain
# notes: Loquacious-PD (Loqs-PD), Drosophila melanogaster, UniProt M9MRT5, full length (C-terminal residue Ile359); also called DmLoqs-PD; Loqs-PD^FL; source: E. coli BL21 (DE3), purified (Ni-NTA, ULP1 cleavage, 2nd Ni-NTA, SEC)
# B4: 50 bp palindromic dsRNA (dsRNA)
# RNA 1: GAGACUUGGGCAAUGUGACUGCUGAUCAGCAGUCACAUUGCCCAAGUCUCUU
# RNA 2: B4 RNA 1
# modifications: 5'-monophosphate on both strands
# Experiments:
# [1] = molecular target: the molecule itself; assay: cryo-EM structure; Dcr-2^DDNN–Loqs-PD with 50 bp dsRNA, without ATP: initial dsRNA-binding state (dimer), 3.1 Å
# [2] = molecular target: T1, Drosophila melanogaster Dicer-2 (Dcr-2), wild type (Drosophila melanogaster, UniProt A1ZAW0 1-1722); assay: pull-down; 1.25 μM His-tagged Loqs-PD and 0.6 μM untagged Dcr-2 mixed on ice for 30 min, then Ni-NTA agarose; 200 mM NaCl, 20 mM Tris pH 8.0, 5% glycerol, 20 mM imidazole, 4 °C, 1 h; SDS–PAGE; settings: both partners purified
# T1 construct: Dicer-2 (Dcr-2), Drosophila melanogaster, UniProt A1ZAW0, full length; The pull-down methods call it 'untagged Dcr-2'; also called WT Dcr-2; Dcr-2^WT; source: sf9 cells (Bac-to-Bac baculovirus), purified (Ni-NTA, Hitrap Q, 2nd Ni-NTA, SEC)
# [3] = molecular target: B1; assay: cryo-EM structure; Dcr-2^DDNN–Loqs-PD with 50 bp dsRNA, without ATP: initial dsRNA-binding state (dimer), 3.1 Å; settings: both partners purified
# [4] = molecular target: T1, Drosophila melanogaster Dicer-2 …; assay: cryo-EM structure; Dcr-2^DDNN–Loqs-PD in the apo state (no dsRNA, no ATP); Dcr-2^DDNN–Loqs-PD with 50 bp dsRNA, ATP and Mg2+ (early-translocation, mid-translocation and active dicing states); WT Dcr-2–Loqs-PD with 50 bp dsRNA, ATP and Mg2+ (post-dicing state); settings: both partners purified
# [5] = molecular target: Dcr-2 delta-dsRBD;Loqs-PD (Drosophila melanogaster;Drosophila …, UniProt A1ZAW0;Q9VJY9-4 1-1628;1-359, |); assay: cryo-EM; ATP, Mg2+; no further dsRNA bending; Cryo-EM and EMSA buffers not given in the material; with or without ATP and Mg2+; settings: protein: recombinant;recombinant; tags: Ni-NTA purified;6xHis-SUMO removed by ULP1; copies: 1;1; 3' overhang 2 nt (UU) at both ends; 50 bp; self-complementary, 2 copies of one strand
# Dcr-2 DDNN;Loqs-PD = Dcr-2 DDNN;Loqs-PD (Drosophila melanogaster;Drosophila …, UniProt A1ZAW0;Q9VJY9-4 1-1722;1-359, D1217N;D1476N|); assay: cryo-EM; no ATP; initial binding state, dimer, 3.1 A; Cryo-EM and EMSA buffers not given in the material; with or without ATP and Mg2+; settings: protein: recombinant;recombinant; tags: Ni-NTA purified;6xHis-SUMO removed by ULP1; copies: 1;1; 3' overhang 2 nt (UU) at both ends; 50 bp; self-complementary, 2 copies of one strand
# Dcr-2 WT;Loqs-PD = Dcr-2 WT;Loqs-PD (Drosophila melanogaster;Drosophila …, UniProt A1ZAW0;Q9VJY9-4 1-1722;1-359, |); assay: cryo-EM; ATP, Mg2+; post-dicing state, RNA cleaved 21 bp from terminus, 4.6 A; Cryo-EM and EMSA buffers not given in the material; with or without ATP and Mg2+; settings: protein: recombinant;recombinant; tags: Ni-NTA purified;6xHis-SUMO removed by ULP1; copies: 1;1; 3' overhang 2 nt (UU) at both ends; 50 bp; self-complementary, 2 copies of one strand
binder,measurement,setting,value
B1,stoichiometry N,[1],2
B2,binding result,[2],binds
B3,binding result,[3],binds
same,binding result,[4],binds
B4,binding result,[5],binds
same,binding result,Dcr-2 DDNN;Loqs-PD,binds
same,binding result,Dcr-2 WT;Loqs-PD,binds
